Test results published in paper PMC2828450, “Crystal structure of the signaling helix coiled-coil domain of the β1 subunit of the soluble guanylyl cyclase” (BMC Structural Biology, 2010).
Where “and” joins values, the source holds several entries; their conditions need not be identical. Identical values can stand only once.

Assays:
[1] = molecular target: sGC beta1 H-NOXA domain H-NOXA (UniProt Q02153); conditions: cited from earlier work
[2] = molecular target: sGC beta1 catalytic domain catalytic domain (UniProt Q02153); conditions: cited from earlier work
[3] = molecular target: the molecule itself; assay: SEC; analytic gel filtration on a Superdex 75 column calibrated with Mw standards, before crystallization; major 38.5 kD and minor 19.5 kD species

In the case of “sGC beta1 H-NOXA domain H-NOXA (from UniProt Q02153)”, the Kd [1] is given as under 60 µM.

In the case of “sGC beta1 catalytic domain catalytic domain (from UniProt Q02153)”, the Kd [2] is listed as 6 µM.

B1: Rattus norvegicus soluble guanylyl cyclase β1 subunit coiled-coil domain, residues 348-409, I371M (domain or fragment)
chain: GSHMATRDLVLLGEQFREEYKLTQELEMLTDRLQLTLRALEDEKKKTDTLLYSVLPPSVANELRHK
modifications: not fully specified (residues 4, 28); printed as gshmATRDLVLLGEQFREEYKLTQELE**M**LTDRLQLTLRALEDEKKKTDTLLYSVLPPSVANELRHK; also: expressed with selenomethionine (Met replaced by SeMet)
notes: N-terminal cloning artefact left after thrombin cleavage of the pET15b tag; The printed calculated mass of 7712.86 Da fits GSHM + 348-409 with I371M (my calculation; wild type would be about 7694.8 Da), and only the I371M construct's purification is described; One molecule is therefore used for all three experiments; also called sGCβ1 CC; rsGCβ1 CC domain; source: E. coli BL21 (DE3) pLysS, …
In the case of B1, the “stoichiometry N” value [3] is reported as 4 and 2.
